{"source": "paper PMC6823450", "key": {"[1]": {"target": "HIV-1 matrix protein p17 (wild type) (HIV-1) (UniProt P03347)", "assay": "cross-linking; p17 (2 μg/ml in 20 μl) 2 h at 37 °C in PBS alone or with heparin, then 1 mM BS3 for 2 h at 37 °C; SDS-PAGE and Western blot with anti-p17; bands of 17, 34, 51 and 68 kDa quantified"}, "[2]": {"target": "HIV-1 matrix protein p17 (wild type) (HIV-1) (UniProt P03347)", "assay": "SPR; p17 immobilised on a CM5 sensorchip by amine coupling (2,500 RU); free p17 (15.7-2000 nM) injected in HBS-EP (10 mM HEPES pH 7.4, 150 mM NaCl, 3 mM EDTA, 0.005% P20) for 2 min; BIAcore X 100; Kd from equilibrium RU (saturation curve, Scatchard) with two softwares; cannot tell dimer, trimer or higher oligomers apart"}}, "note": "Where “and” joins values, the source holds several entries; their conditions need not be identical. Identical values can stand only once.", "data": [{"substance": "HIV-1 matrix protein p17 (wild type) (from UniProt P03347 1-132) (natural protein)", "values": [{"measurement": "% of total protein as dimer", "setting": "[1]", "result": 29, "unit": "%"}, {"measurement": "% of total protein as tetramer", "setting": "[1]", "result": 3, "unit": "%"}, {"measurement": "% of total protein as trimer", "setting": "[1]", "result": 12, "unit": "%"}, {"measurement": "% of total protein remaining monomer", "setting": "[1]", "result": 59, "unit": "%"}, {"measurement": "fold increase of dimer with heparin against no heparin", "setting": "[1]", "result": 2, "unit": "fold"}, {"measurement": "fold increase of tetramer with heparin against no heparin", "setting": "[1]", "result": 3.4, "unit": "fold"}, {"measurement": "fold increase of trimer with heparin against no heparin", "setting": "[1]", "result": 4.2, "unit": "fold"}, {"measurement": "stoichiometry N", "setting": "[1]", "result": "2 and 3 and 4"}, {"measurement": "Kd", "setting": "[2]", "result": "0.529 µM and 0.665 µM"}]}]}
